Results as given in PMC11677236, “TIPE drives a cancer stem-like phenotype by promoting glycolysis via PKM2/HIF-1α axis in melanoma” (eLife, 2024).

Target: T1, GST-tagged PKM2 (UniProt P14618 1-531)
T1 construct: Pyruvate kinase isoform M2 (PKM2); also called GST-PKM2; source: purified
Assay: pull-down; GST-pull down in vitro using purified GST-tagged PKM2 and TIPE-HA
Details: both partners purified

T1 sequence (P14618 whole entry, canonical isoform): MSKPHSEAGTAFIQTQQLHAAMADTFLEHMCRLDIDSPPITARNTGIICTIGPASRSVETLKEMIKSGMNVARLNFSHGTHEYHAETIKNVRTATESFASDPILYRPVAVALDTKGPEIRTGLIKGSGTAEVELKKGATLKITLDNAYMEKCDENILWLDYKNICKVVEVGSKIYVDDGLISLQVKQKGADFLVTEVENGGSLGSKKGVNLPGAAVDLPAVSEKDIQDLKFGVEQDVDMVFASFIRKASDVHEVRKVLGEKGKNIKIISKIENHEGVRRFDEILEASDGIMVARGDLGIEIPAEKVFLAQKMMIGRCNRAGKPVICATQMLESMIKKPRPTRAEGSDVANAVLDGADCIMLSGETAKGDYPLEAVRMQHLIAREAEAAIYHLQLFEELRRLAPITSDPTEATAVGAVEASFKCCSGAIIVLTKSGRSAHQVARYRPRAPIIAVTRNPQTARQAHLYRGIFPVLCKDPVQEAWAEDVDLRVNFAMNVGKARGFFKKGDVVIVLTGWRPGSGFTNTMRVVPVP

- binding result: binds
B1: TIPE-HA used in the GST-pull down assay (natural protein, UniProt O95379 1-198, looked up)
chain: MHSEAEESKEVATDVFNSKNLAVQAQKKILGKMVSKSIATTLIDDTSSEVLDELYRVTREYTQNKKEAEKIIKNLIKTVIKLAILYRNNQFNQDELALMEKFKKKVHQLAMTVVSFHQVDYTFDRNVLSRLLNECREMLHQIIQRHLTAKSHGRVNNVFDHFSDCEFLAALYNPFGNFKPHLQKLCDGINKMLDEENI
notes: TIPE (TNFAIP8); The legend says 'using purified GST-tagged PKM2 and TIPE-HA'; It may be the same construct as m3
